Data on 19 molecules can be found in PMC9663165, “Human immunomodulatory ligand B7-1 mediates synaptic remodeling via the p75 neurotrophin receptor” (The Journal of Clinical Investigation, 2022).

Residue numbers refer to the chain shown, from its start. Names may count otherwise.

B1: hB7-1-mIgG2A (Fc fusion, human, UniProt P33681 35-233, looked up)
chain: VIHVTKEVKEVATLSCGHNVSVEELAQTRIYWQKEKKMVLTMMSGDMNIWPEYKNRTIFDITNNLSIVILALRPSDEGTYECVVLKYEKDAFKREHLAEVTLSVKADFPTPSISDFEIPTSNIRRIICSTSGGFPEPHLSWLENGEELNAINTTVSQDPETELYAVSSKLDFNMTTNHSFMCLIKYGHLRVNQTFNWNT
notes: B7-1 (CD80), human, ectodomain residues 35-233; also called B7-1-Fc; WT B7-1-Fc; source: Expi293, transiently expressed, purified (Ni2+ His60 resin, S200 gel filtration); not shown: Fc (mouse IgG2a), C-terminal, kept
B2: hB7-1N82E-mIgG2A (Fc fusion, human, UniProt P33681 35-233, looked up)
chain: B1 chain with N48E
notes: B7-1 (CD80), human, ectodomain residues 35-233 with N82E; also called B7-1N82E-Fc; source: Expi293, transiently expressed, purified (Ni2+ His60 resin, S200 gel filtration); not shown: Fc (mouse IgG2a), C-terminal, kept
B3: hB7-1 Y65A–mCherry (ligand, human, UniProt P33681 35-288, looked up)
chain: VIHVTKEVKEVATLSCGHNVSVEELAQTRIAWQKEKKMVLTMMSGDMNIWPEYKNRTIFDITNNLSIVILALRPSDEGTYECVVLKYEKDAFKREHLAEVTLSVKADFPTPSISDFEIPTSNIRRIICSTSGGFPEPHLSWLENGEELNAINTTVSQDPETELYAVSSKLDFNMTTNHSFMCLIKYGHLRVNQTFNWNTTKQEHFPDNLLPSWAITLISVNGIFVICCLTYCFAPRCRERRRNERLRRESVRPV
notes: human B7-1 (CD80), point mutant in the IgV domain; source: HEK293F, transfected, on cells
B4: hB7-1 Y121D–mCherry (ligand, human, UniProt P33681 35-288, looked up)
chain: B3 chain with A31Y, Y87D
notes: as for B3
B5: hB7-1 T39A–mCherry (ligand, human, UniProt P33681 35-288, looked up)
chain: B3 chain with T5A, A31Y
notes: as for B3
B6: hB7-1 K40D–mCherry (ligand, human, UniProt P33681 35-288, looked up)
chain: B3 chain with K6D, A31Y
notes: human B7-1 (CD80), point mutant in the IgV domain; printed once as K40D and once as Y40D; also called Y40D; source: HEK293F, transfected, on cells
B7: hB7-1 I36D–mCherry (ligand, human, UniProt P33681 35-288, looked up)
chain: B3 chain with I2D, A31Y
notes: as for B3
B8: hB7-1 K43D–mCherry (ligand, human, UniProt P33681 35-288, looked up)
chain: B3 chain with K9D, A31Y
notes: as for B3
B9: hB7-1 S49A–mCherry (ligand, human, UniProt P33681 35-288, looked up)
chain: B3 chain with S15A, A31Y
notes: as for B3
B10: hB7-1 E41A–mCherry (ligand, human, UniProt P33681 35-288, looked up)
chain: B3 chain with E7A, A31Y
notes: as for B3
B11: hB7-1 I36A–mCherry (ligand, human, UniProt P33681 35-288, looked up)
chain: B3 chain with I2A, A31Y
notes: as for B3
B12: hB7-1 L131D–mCherry (ligand, human, UniProt P33681 35-288, looked up)
chain: B3 chain with A31Y, L97D
notes: as for B3
B13: hB7-1 K139D–mCherry (ligand, human, UniProt P33681 35-288, looked up)
chain: B3 chain with A31Y, K105D
notes: as for B3
B14: hB7-1 E69A–mCherry (ligand, human, UniProt P33681 35-288, looked up)
chain: B3 chain with A31Y, E35A
notes: as for B3
B15: hB7-1 K120D–mCherry (ligand, human, UniProt P33681 35-288, looked up)
chain: B3 chain with A31Y, K86D
notes: as for B3
B16: hB7-1 V45D–mCherry (ligand, human, UniProt P33681 35-288, looked up)
chain: B3 chain with V11D, A31Y
notes: as for B3
B17: hB7-1 K127D–mCherry (ligand, human, UniProt P33681 35-288, looked up)
chain: B3 chain with A31Y, K93D
notes: as for B3
B18: hB7-1 R63D–mCherry (ligand, human, UniProt P33681 35-288, looked up)
chain: B3 chain with R29D, A31Y
notes: as for B3
B19: p75^NTR-mIgG2A (Fc fusion, UniProt P08138 29-250, looked up)
chain: KEACPTGLYTHSGECCKACNLGEGVAQPCGANQTVCEPCLDSVTFSDVVSATEPCKPCTECVGLQSMSAPCVEADDAVCRCAYGYYQDETTGRCEACRVCEAGSGLVFSCQDKQNTVCEECPDGTYSDEANHVDPCLPCTVCEDTERQLRECTRWADAECEEIPGRWITRSTPPEGSDSTAPSTQEPEAPPEQDLIASTVAGVVTTVMGSSQPVVTRGTTDN
notes: p75NTR (NGFR) full-length ectodomain; also called p75^NTR-Fc; source: Expi293 suspension cells, transiently transfected, purified; not shown: Fc (mouse IgG2a), C-terminal, kept

T2 sequence (P16410 36-223): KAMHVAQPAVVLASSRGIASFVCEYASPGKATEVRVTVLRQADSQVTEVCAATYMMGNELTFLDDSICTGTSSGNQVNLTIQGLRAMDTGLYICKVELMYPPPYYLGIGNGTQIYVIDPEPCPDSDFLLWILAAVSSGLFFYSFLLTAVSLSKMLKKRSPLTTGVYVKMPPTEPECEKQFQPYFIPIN

The first test has as its target T1, human p75 neurotrophin receptor-GFP (human, UniProt P08138 29-427).
T1 construct: also called p75NTR; NGFR; source: HEK293F, transiently transfected, on cells; not shown: GFP, C-terminal, kept
T1 sequence (looked up): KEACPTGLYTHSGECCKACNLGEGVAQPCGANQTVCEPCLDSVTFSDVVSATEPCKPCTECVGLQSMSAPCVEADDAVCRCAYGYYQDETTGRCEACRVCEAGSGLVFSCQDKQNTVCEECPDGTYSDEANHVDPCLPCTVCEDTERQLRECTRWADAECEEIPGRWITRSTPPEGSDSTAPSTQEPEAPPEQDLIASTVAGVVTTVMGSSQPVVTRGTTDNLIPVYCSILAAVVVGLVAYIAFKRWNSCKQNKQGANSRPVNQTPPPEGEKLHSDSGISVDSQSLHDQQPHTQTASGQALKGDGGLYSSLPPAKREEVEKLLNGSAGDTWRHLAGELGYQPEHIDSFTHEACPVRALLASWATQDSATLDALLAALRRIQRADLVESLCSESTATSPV
The test is described as follows: flow cytometry on cells; recombinant B7-1-Fc or B7-1N82E-Fc titrated (up to 1.2 uM) onto cells expressing CTLA-4, CD28 or p75NTR; detected with an anti-mouse 647 labelled antibody; EC50 calculated. To be noted: one partner purified.
The term EC50 denotes the concentration that produces a half-maximal response. Turning to B1, the EC50 is 285 nM.

The next test concerns the target T2, CTLA-4 on cells (Figure S6) ( (human or mouse cDNA cloned), UniProt P16410 36-223).
T2 construct: CTLA-4; Probably a C-terminal GFP fusion in HEK293F cells as in the other experiments; also called CTLA-4 Expressing Cells; CTLA-4 cells
The test is described as above. Particulars: one partner purified.
B1: the EC50 is 0.69 nM.
Same read-out and setting: with B2 the figure was 9.2 nM.

A further test addresses T3, CD28 on cells (Figure S6) ( (human or mouse cDNA cloned), UniProt P10747 19-220).
T3 construct: CD28; Probably a C-terminal GFP fusion in HEK293F cells as in the other experiments; also called CD28 Expressing Cells; CD28 cells
The test is described as above. To be noted: one partner purified.
In the case of B1, the EC50 was 9.7 nM.
The same measure, in the same setting: as for B2, the figure is 10.3 nM.

The target of a further test is T4, full-length human p75 neurotrophin receptor fused at the cytoplasmic C-terminus to GFP (human, UniProt P08138 29-427).
T4 construct: As query against the GFP-tagged library it carried the opposite colour tag (mCherry); kept as one molecule; also called p75^NTR; NGFR; source: HEK293 suspension cells, transiently transfected, on cells; not shown: GFP, C-terminal, kept
T4 sequence (looked up): T1 sequence (looked up)
Put plainly: flow cytometry on cells; cell-cell conjugates: HEK293F cells expressing 92 B7-1–mCherry point mutants (IgV domain) against HEK293F cells expressing CTLA-4–GFP, CD28-GFP or p75NTR-GFP; percent of WT binding. To be noted: partners not purified.
With B3, the “loss in binding relative to WT” value was > 25%.
As to B4, the “loss in binding relative to WT” value was > 25%.
B5: the “loss in binding relative to WT” value was > 25%.
On the same count and under the same terms, as for B6, the figure is > 25%; as for B7, > 25%; as for B8, > 25%.
Still for that read-out and setting: as for B9, the figure is > 25%.

A further test concerns the target T5, CD28-GFP (human, UniProt P10747 19-220).
T5 construct: human CD28, member of the human Ig superfamily library; source: HEK293F, transfected, on cells; not shown: GFP, C-terminal, kept
The test is described as above. To be noted: partners not purified.
In the case of B10, the “loss in binding relative to WT” value is > 25%.
On the same count and under the same terms, as for B3, the figure is > 25%; as for B11, > 25%.
Still for that read-out and setting: with B5 the figure was > 25%; with B12, > 25%.
Still for that read-out and setting: with B6 the figure was > 25%; with B13, > 25%.
On to B14, for which the “loss in binding relative to WT” value is > 25%.
Same read-out and setting: as for B15, the figure is > 25%; as for B7, > 25%.
On to B8, for which the “loss in binding relative to WT” value is > 25%.
For the molecule B16, the “loss in binding relative to WT” value is > 25%.
Same read-out and setting: as for B9, the figure is > 25%; as for B17, > 25%; as for B18, > 25%.

The next test has as its target T6, B7-1–hIgG1 biotin (human, UniProt P33681 35-233, biotin on the AVI tag).
T6 construct: human B7-1 (CD80) ectodomain, residues 35-233; also called recombinant biotinylated B7-1–Fc protein; B7-1–Fc biotin; source: Expi293 cells stably expressing BirA, transiently transfected, purified; not shown: Fc (human IgG1), C-terminal, kept; AVI tag, C-terminal, kept
T6 sequence (looked up): B1 chain
The test is described as follows: flow cytometry on protein-coated beads; p75NTR-mIgG2a or CTLA-4–mIgG2a titrated (0 to 100 nM, 30 min) onto streptavidin beads coated with B7-1–hIgG1 biotin; detected with anti-mIgG2a; PBS 0.2% BSA pH 7.4; Hill fit; dimeric fusion proteins. To be noted: both partners purified. Background: Flow cytometry measures light scatter and fluorescence of single cells or particles in a stream.
In the case of B19, the EC50 came to 16 nM.
